Assay results: patent US12099068B2, “Biomarkers for graft-versus-host disease” (Incyte Corporation, priority 2018, dated 2024)

System: plasma proteins
Assay: Plasma proteins modulated between baseline and day 28 in responders (CR, VGPR, PR; n = 19), Example 6 (Table 13)
Type: in vivo, human
Conditions: plasma protein (OLINK NPX); responders (CR, VGPR, PR; n = 19); itacitinib 200 mg or 300 mg QD with corticosteroids; day 28 vs baseline
Outline: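 Longitudinal comparison, day 28 versus baseline, with steroid-naive (N=10) and steroid-refractory (N=18) patients combined. Proteins measured by OLINK proximity extension, log2 normalized protein expression. Differences tested by t tests, ANOVA, Pearson correlation, P<0.05 significant.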

Molecule	Fold Change, Decreased Expression from Baseline to Day 28	Fold Change, Increased Expression from Baseline to Day 28
SNAP23 (protein, UniProt O00161 1-211, looked up) Synaptosomal-associated …: MDNLSSEEIQQRAHQITDESLESTRRILGLAIESQDAGIKTITMLDEQKEQLNRIEEGLDQINKDMRETEKTLTELNKCCGLCVCPCNRTKNFESGKAYKTTWGDGGENSPCNVVSKQPGPVTNGQLQQPTTGAASGGYIKRITNDAREDEMEENLTQVGSILGNLKDMALNIGNEIDAQNPQIKRITDKADTNRDRIDIANARAKKLIDS	−1.5751	
KLK10 (protein, UniProt O43240 31-276, looked up) Kallikrein-10: AEAALLPQNDTRLDPEAYGSPCARGSQPWQVSLFNGLSFHCAGVLVDQSWVLTAAHCGNKPLWARVGDDHLLLLQGEQLRRTTRSVVHPKYHQGSGPILPRRTDEHDLMLLKLARPVVLGPRVRALQLPYRCAQPGDQCQVAGWGTTAARRVKYNKGLTCSSITILSPKECEVFYPGVVTNNMICAGLDRGQDPCQSDSGGPLVCDETLQGILSWGVYPCGSAQHPAVYTQICKYMSWINKVIRSN		1.2102
TIGAR (protein, UniProt Q9NQ88 1-270, looked up) Fructose-2,6-bisphosphatase …: MARFALTVVRHGETRFNKEKIIQGQGVDEPLSETGFKQAAAAGIFLNNVKFTHAFSSDLMRTKQTMHGILERSKFCKDMTVKYDSRLRERKYGVVEGKALSELRAMAKAAREECPVFTPPGGETLDQVKMRGIDFFEFLCQLILKEADQKEQFSQGSPSNCLETSLAEIFPLGKNHSSKVNSDSGIPGLAASVLVVSHGAYMRSLFDYFLTDLKCSLPATLSRSELMSVTPNTGMSLFIINFEEGREVKPTVQCICMNLQDHLNGLTETR	−1.3733	
LAT2 (protein, UniProt Q9GZY6 1-243, looked up) Linker for activation of …: MSSGTELLWPGAALLVLLGVAASLCVRCSRPGAKRSEKIYQQRSLREDQQSFTGSRTYSLVGQAWPGPLADMAPTRKDKLLQFYPSLEDPASSRYQNFSKGSRHGSEEAYIDPIAMEYYNWGRFSKPPEDDDANSYENVLICKQKTTETGAQQEGIGGLCRGDLSLSLALKTGPTSGLCPSASPEEDEESEDYQNSASIHQWRESRKVMGQLQREASPGPVGSPDEEDGEPDYVNGEVAATEA	−1.7755	
FAM3C (protein, UniProt Q92520 25-227, looked up) Protein FAM3C: QVFEIKMDASLGNLFARSALDTAARSTKPPRYKCGISKACPEKHFAFKMASGAANVVGPKICLEDNVLMSGVKNNVGRGINVALANGKTGEVLDTKYFDMWGGDVAPFIEFLKAIQDGTIVLMGTYDDGATKLNDEARRLIADLGSTSITNLGFRDNWVFCGGKGIKTKSPFEQHIKNNKDTNKYEGWPEVVEMEGCIPQKQD		1.3109
MIF (protein, UniProt P14174 2-115, looked up) Macrophage migration …: PMFIVNTNVPRASVPDGFLSELTQQLAQATGKPPQYIAVHVVPDQLMAFGGSSEPCALCSLHSIGKIGGAQNRSYSKLLCGLLAERLRISPDRVYINYYDMNAANVGWNNSTFA	−1.7486	
NUB1 (protein, UniProt Q9Y5A7 1-615, looked up) NEDD8 ultimate buster 1: MAQKKYLQAKLTQFLREDRIQLWKPPYTDENKKVGLALKDLAKQYSDRLECCENEVEKVIEEIRCKAIERGTGNDNYRTTGIATIEVFLPPRLKKDRKNLLETRLHITGRELRSKIAETFGLQENYIKIVINKKQLQLGKTLEEQGVAHNVKAMVLELKQSEEDARKNFQLEEEEQNEAKLKEKQIQRTKRGLEILAKRAAETVVDPEMTPYLDIANQTGRSIRIPPSERKALMLAMGYHEKGRAFLKRKEYGIALPCLLDADKYFCECCRELLDTVDNYAVLQLDIVWCYFRLEQLECLDDAEKKLNLAQKCFKNCYGENHQRLVHIKGNCGKEKVLFLRLYLLQGIRNYHSGNDVEAYEYLNKARQLFKELYIDPSKVDNLLQLGFTAQEARLGLRACDGNVDHAATHITNRREELAQIRKEEKEKKRRRLENIRFLKGMGYSTHAAQQVLHAASGNLDEALKILLSNPQMWWLNDSNPETDNRQESPSQENIDRLVYMGFDALVAEAALRVFRGNVQLAAQTLAHNGGSLPPELPLSPEDSLSPPATSPSDSAGTSSASTDEDMETEAVNEILEDIPEHEEDYLDSTLEDEEIIIAEYLSYVENRKSATKKN	−1.4966	
AGR2 (protein, UniProt O95994 21-175, looked up) Anterior gradient protein 2 …: RDTTVKPGAKKDTKDSRPKLPQTLSRGWGDQLIWTQTYEEALYKSKTSNKPLMIIHHLDECPHSQALKKVFAENKEIQKLAEQFVLLNLVYETTDKHLSPDGQYVPRIMFVDPSLTVRADITGRYSNRLYAYEPADTALLLDNMKKALKLLKTEL		1.4472
MILR1 (protein, UniProt Q7Z6M3 20-343, looked up) Allergin-1: RKAVLDCEAMKTNEFPSPCLDSKTKVVMKGQNVSMFCSHKNKSLQITYSLFRRKTHLGTQDGKGEPAIFNLSITEAHESGPYKCKAQVTSCSKYSRDFSFTIVDPVTSPVLNIMVIQTETDRHITLHCLSVNGSLPINYTFFENHVAISPAISKYDREPAEFNLTKKNPGEEEEYRCEAKNRLPNYATYSHPVTMPSTGGDSCPFCLKLLLPGLLLLLVVIILILAFWVLPKYKTRKAMRNNVPRDRGDTAMEVGIYANILEKQAKEESVPEVGSRPCVSTAQDEAKHSQELQYATPVFQEVAPREQEACDSYKSGYVYSELNF	−1.3829	
STAMPB (protein, UniProt O95630 1-424, looked up) STAM-binding protein: MSDHGDVSLPPEDRVRALSQLGSAVEVNEDIPPRRYFRSGVEIIRMASIYSEEGNIEHAFILYNKYITLFIEKLPKHRDYKSAVIPEKKDTVKKLKEIAFPKAEELKAELLKRYTKEYTEYNEEKKKEAEELARNMAIQQELEKEKQRVAQQKQQQLEQEQFHAFEEMIRNQELEKERLKIVQEFGKVDPGLGGPLVPDLEKPSLDVFPTLTVSSIQPSDCHTTVRPAKPPVVDRSLKPGALSNSESIPTIDGLRHVVVPGRLCPQFLQLASANTARGVETCGILCGKLMRNEFTITHVLIPKQSAGSDYCNTENEEELFLIQDQQGLITLGWIHTHPTQTAFLSSVDLHTHCSYQMMLPESVAIVCSPKFQETGFFKLTDHGLEEISSCRQKGFHPHSKDPPLFCSCSHVTVVDRAVTITDLR	−1.3721	
GDF-2 (protein, UniProt Q9UK05 320-429, looked up) Growth/differentiation factor …: SAGAGSHCQKTSLRVNFEDIGWDSWIIAPKEYEAYECKGGCFFPLADDVTPTKHAIVQTLVHLKFPTKVGKACCVPTKLSPISVLYKDDMGVPTLKYHYEGMSVAECGCR		1.3656
